Measurements taken from publication PMC8906434.

Target: PB2-C (amino acids 247 to 736) from influenza A/Vietnam/1203/2004 (H5N1) virus (influenza A/Vietnam/1203/2004 (H5N1))
Experiment: SEC + other: SAXS

**Q.** For “Rab11a_(1-173) (truncated Rab11a, GST tag removed) (from UniProt P62491 1-173) (domain or fragment)”, which stoichiometry N is on record?
**A.** 1
